Columns and labels:
Experiment in all cases: holdup assay
Set-up in all cases: key: below the threshold = too weak to quantify, mostly under pKd 3.1 to 4
Inadl_2, Q8NI35 = biological target: Inadl_2, Q8NI35
AHNAK1, Q09666 = biological target: AHNAK1, Q09666
CASK, O14936 = biological target: CASK, O14936
NHERF3_3, Q5T2W1 = biological target: T1, NHERF3_3, Q5T2W1
T1 sequence (Q5T2W1 238-333, limits assumed, looked up): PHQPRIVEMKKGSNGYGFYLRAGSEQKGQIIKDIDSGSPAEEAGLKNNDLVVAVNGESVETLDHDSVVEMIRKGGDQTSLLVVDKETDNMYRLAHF

DLG3_2, Q92796 = biological target: T2, DLG3_2, Q92796
T2 sequence (Q92796 221-321, limits assumed, looked up): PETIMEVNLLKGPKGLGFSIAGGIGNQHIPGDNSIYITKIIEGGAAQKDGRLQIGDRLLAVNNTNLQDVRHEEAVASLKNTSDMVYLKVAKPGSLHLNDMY

PICK1, Q9NRD5 = biological target: PICK1, Q9NRD5
DLG1_3, Q12959 = biological target: DLG1_3, Q12959
PDZRN4_1, Q6ZMN7 = biological target: PDZRN4_1, Q6ZMN7
DLG3_3, Q92796 = biological target: T3, DLG3_3, Q92796
T3 sequence (Q92796 374-475, limits assumed, looked up): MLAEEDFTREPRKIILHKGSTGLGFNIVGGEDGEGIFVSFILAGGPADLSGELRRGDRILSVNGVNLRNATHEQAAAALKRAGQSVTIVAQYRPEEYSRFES

LDB3, O75112 = biological target: LDB3, O75112
DLG1_1, Q12959 = biological target: DLG1_1, Q12959
TIAM2, Q8IVF5 = biological target: T4, TIAM2, Q8IVF5
T4 sequence (Q8IVF5 885-986, limits assumed, looked up): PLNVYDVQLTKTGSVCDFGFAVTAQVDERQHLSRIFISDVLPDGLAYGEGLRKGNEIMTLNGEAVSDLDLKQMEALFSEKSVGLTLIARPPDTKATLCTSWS

DFNB31_2, Q9P202 = biological target: T5, DFNB31_2, Q9P202
T5 sequence (Q9P202 274-371, limits assumed, looked up): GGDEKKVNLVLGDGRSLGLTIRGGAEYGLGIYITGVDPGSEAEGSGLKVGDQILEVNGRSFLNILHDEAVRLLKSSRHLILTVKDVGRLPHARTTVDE

LNX2_3, Q8N448 = biological target: T6, LNX2_3, Q8N448
T6 sequence (Q8N448 463-564, limits assumed, looked up): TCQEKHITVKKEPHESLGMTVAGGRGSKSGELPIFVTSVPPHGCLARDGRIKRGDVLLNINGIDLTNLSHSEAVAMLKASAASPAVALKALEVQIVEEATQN

LRRC7, Q96NW7 = biological target: T7, LRRC7, Q96NW7
T7 sequence (Q96NW7 1440-1537, limits assumed, looked up): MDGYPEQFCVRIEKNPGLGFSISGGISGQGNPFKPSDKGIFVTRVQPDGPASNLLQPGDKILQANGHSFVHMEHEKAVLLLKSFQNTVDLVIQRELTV

RHPN1, Q8TCX5 = biological target: T8, RHPN1, Q8TCX5
T8 sequence (Q8TCX5 508-602, limits assumed, looked up): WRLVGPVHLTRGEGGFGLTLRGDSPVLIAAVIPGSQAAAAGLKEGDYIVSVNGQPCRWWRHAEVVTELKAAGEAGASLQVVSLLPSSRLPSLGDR

MPP2, Q14168 = biological target: T9, MPP2, Q14168
T9 sequence (Q14168 180-250, limits assumed, looked up): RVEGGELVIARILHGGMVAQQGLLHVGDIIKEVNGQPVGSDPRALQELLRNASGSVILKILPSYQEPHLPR

SCRIB_1, Q14160 = biological target: SCRIB_1, Q14160
SCRIB_2, Q14160 = biological target: SCRIB_2, Q14160
GRIP1_3, Q9Y3R0 = biological target: T10, GRIP1_3, Q9Y3R0
T10 sequence (Q9Y3R0 247-346, limits assumed, looked up): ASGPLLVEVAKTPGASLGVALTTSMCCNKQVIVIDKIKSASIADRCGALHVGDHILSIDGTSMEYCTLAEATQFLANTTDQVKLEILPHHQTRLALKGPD

Inadl_4, Q8NI35 = biological target: Inadl_4, Q8NI35
MAGI2_3, Q86UL8 = biological target: MAGI2_3, Q86UL8
GOPC, Q9HD26 = biological target: GOPC, Q9HD26
Inadl_10, Q8NI35 = biological target: Inadl_10, Q8NI35
LNX1_1, Q8TBB1 = biological target: LNX1_1, Q8TBB1
RAPGEF6, Q8TEU7 = biological target: T11, RAPGEF6, Q8TEU7
T11 sequence (Q8TEU7 525-625, limits assumed, looked up): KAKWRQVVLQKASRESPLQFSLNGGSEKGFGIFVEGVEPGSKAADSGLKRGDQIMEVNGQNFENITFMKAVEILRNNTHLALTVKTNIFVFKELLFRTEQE

GRID2IP_1, A4D2P6 = biological target: GRID2IP_1, A4D2P6
[1] = plain residues with an end cap or a label only (N-terminal biotin on a linker: ttds)
[2] = plain residues with an end cap or a label only (N-terminal biotin on a linker: ahx)

Sequence of Inadl_2, Q8NI35 (Q8NI35 238-335): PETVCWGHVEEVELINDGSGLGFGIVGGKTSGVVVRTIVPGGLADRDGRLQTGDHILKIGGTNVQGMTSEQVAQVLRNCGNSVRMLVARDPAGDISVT
Sequence of SCRIB_1, Q14160 (Q14160 718-814): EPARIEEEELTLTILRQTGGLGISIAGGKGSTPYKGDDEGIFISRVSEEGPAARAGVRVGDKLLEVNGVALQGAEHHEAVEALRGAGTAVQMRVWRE
Sequence of LDB3, O75112 (O75112 1-94): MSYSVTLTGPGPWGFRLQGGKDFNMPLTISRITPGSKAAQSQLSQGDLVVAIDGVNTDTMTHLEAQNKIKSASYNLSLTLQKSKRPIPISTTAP
Sequence of Inadl_10, Q8NI35 (Q8NI35 1673-1763): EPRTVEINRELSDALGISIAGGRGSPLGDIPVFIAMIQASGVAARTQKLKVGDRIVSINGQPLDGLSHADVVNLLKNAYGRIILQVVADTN
Sequence of CASK, O14936 (O14936 487-570): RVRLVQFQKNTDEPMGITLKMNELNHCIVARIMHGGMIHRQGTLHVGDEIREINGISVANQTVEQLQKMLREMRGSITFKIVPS
Sequence of PICK1, Q9NRD5 (Q9NRD5 17-115): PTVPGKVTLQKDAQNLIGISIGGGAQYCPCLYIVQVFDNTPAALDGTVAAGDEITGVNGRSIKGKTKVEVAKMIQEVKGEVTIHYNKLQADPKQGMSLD
Sequence of AHNAK1, Q09666 (Q09666 4-100): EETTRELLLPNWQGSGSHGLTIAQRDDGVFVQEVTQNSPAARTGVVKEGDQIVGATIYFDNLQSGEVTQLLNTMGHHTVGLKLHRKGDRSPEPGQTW
Sequence of GRID2IP_1, A4D2P6 (A4D2P6 1-87): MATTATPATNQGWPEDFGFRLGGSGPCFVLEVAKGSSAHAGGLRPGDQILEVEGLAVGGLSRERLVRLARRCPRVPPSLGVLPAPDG
Sequence of LNX1_1, Q8TBB1 (Q8TBB1 261-371): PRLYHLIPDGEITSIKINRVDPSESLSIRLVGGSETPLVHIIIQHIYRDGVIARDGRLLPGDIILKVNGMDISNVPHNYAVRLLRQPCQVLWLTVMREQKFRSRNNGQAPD
Sequence of PDZRN4_1, Q6ZMN7 (Q6ZMN7 213-318): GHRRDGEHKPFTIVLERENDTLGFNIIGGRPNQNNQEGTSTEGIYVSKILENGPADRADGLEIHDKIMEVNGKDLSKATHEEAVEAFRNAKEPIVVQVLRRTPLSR
Sequence of MAGI2_3, Q86UL8 (Q86UL8 600-682): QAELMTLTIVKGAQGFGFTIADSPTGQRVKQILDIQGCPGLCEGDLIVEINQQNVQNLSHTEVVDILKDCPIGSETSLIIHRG
Sequence of SCRIB_2, Q14160 (Q14160 857-960): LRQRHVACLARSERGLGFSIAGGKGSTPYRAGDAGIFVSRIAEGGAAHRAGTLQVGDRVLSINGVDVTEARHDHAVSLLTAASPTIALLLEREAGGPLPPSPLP
Sequence of Inadl_4, Q8NI35 (Q8NI35 547-651): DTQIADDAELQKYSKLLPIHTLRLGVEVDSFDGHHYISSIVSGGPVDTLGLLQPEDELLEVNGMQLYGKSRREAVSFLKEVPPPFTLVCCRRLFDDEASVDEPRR

## PFRSRSPSEV [GPR6, P46095]
Inadl_2, Q8NI35; [1]
  pKd: below the threshold
AHNAK1, Q09666; [1]
  pKd: below the threshold
CASK, O14936; [1]
  pKd: below the threshold
NHERF3_3, Q5T2W1; [1]
  pKd: below the threshold
DLG3_2, Q92796; [1]
  pKd: below the threshold
PICK1, Q9NRD5; [1]
  pKd: below the threshold
DLG1_3, Q12959; [1]
  pKd: 3.81
PDZRN4_1, Q6ZMN7; [1]
  pKd: 3.57
DLG3_3, Q92796; [1]
  pKd: below the threshold
LDB3, O75112; [1]
  pKd: below the threshold
DLG1_1, Q12959; [1]
  pKd: below the threshold
TIAM2, Q8IVF5; [1]
  pKd: below the threshold
DFNB31_2, Q9P202; [1]
  pKd: below the threshold
LNX2_3, Q8N448; [1]
  pKd: below the threshold
LRRC7, Q96NW7; [1]
  pKd: below the threshold
RHPN1, Q8TCX5; [1]
  pKd: below the threshold
MPP2, Q14168; [1]
  pKd: below the threshold
SCRIB_1, Q14160; [1]
  pKd: below the threshold
SCRIB_2, Q14160; [1]
  pKd: below the threshold
GRIP1_3, Q9Y3R0; [1]
  pKd: below the threshold
Inadl_4, Q8NI35; [1]
  pKd: below the threshold
MAGI2_3, Q86UL8; [1]
  pKd: below the threshold
GOPC, Q9HD26; [1]
  pKd: below the threshold
Inadl_10, Q8NI35; [1]
  pKd: below the threshold
LNX1_1, Q8TBB1; [1]
  pKd: below the threshold
RAPGEF6, Q8TEU7; [1]
  pKd: below the threshold
GRID2IP_1, A4D2P6; [1]
  pKd: below the threshold

## KLVIKTETTV [RASSF6, Q6ZTQ3]
Inadl_2, Q8NI35; [1]
  pKd: below the threshold
AHNAK1, Q09666; [1]
  pKd: below the threshold
CASK, O14936; [1]
  pKd: below the threshold
NHERF3_3, Q5T2W1; [1]
  pKd: below the threshold
DLG3_2, Q92796; [1]
  pKd: 5.53
PICK1, Q9NRD5; [1]
  pKd: below the threshold
DLG1_3, Q12959; [1]
  pKd: 4.2
PDZRN4_1, Q6ZMN7; [1]
  pKd: 4.15
DLG3_3, Q92796; [1]
  pKd: 4.43
LDB3, O75112; [1]
  pKd: below the threshold
DLG1_1, Q12959; [1]
  pKd: 4.88
TIAM2, Q8IVF5; [1]
  pKd: below the threshold
DFNB31_2, Q9P202; [1]
  pKd: below the threshold
LNX2_3, Q8N448; [1]
  pKd: below the threshold
LRRC7, Q96NW7; [1]
  pKd: below the threshold
RHPN1, Q8TCX5; [1]
  pKd: 3.93
MPP2, Q14168; [1]
  pKd: below the threshold
SCRIB_1, Q14160; [1]
  pKd: 3.9
SCRIB_2, Q14160; [1]
  pKd: 3.95
GRIP1_3, Q9Y3R0; [1]
  pKd: below the threshold
Inadl_4, Q8NI35; [1]
  pKd: below the threshold
MAGI2_3, Q86UL8; [1]
  pKd: 3.73
GOPC, Q9HD26; [1]
  pKd: 3.53
Inadl_10, Q8NI35; [1]
  pKd: below the threshold
LNX1_1, Q8TBB1; [1]
  pKd: below the threshold
RAPGEF6, Q8TEU7; [1]
  pKd: 3.46
GRID2IP_1, A4D2P6; [1]
  pKd: below the threshold

## SHSSKGETAV [FZD7, O75084]
Inadl_2, Q8NI35; [1]
  pKd: below the threshold
AHNAK1, Q09666; [1]
  pKd: below the threshold
CASK, O14936; [1]
  pKd: below the threshold
NHERF3_3, Q5T2W1; [1]
  pKd: below the threshold
DLG3_2, Q92796; [1]
  pKd: 4.53
PICK1, Q9NRD5; [1]
  pKd: below the threshold
DLG1_3, Q12959; [1]
  pKd: 4.01
PDZRN4_1, Q6ZMN7; [1]
  pKd: 4.3
DLG3_3, Q92796; [1]
  pKd: 4.12
LDB3, O75112; [1]
  pKd: below the threshold
DLG1_1, Q12959; [1]
  pKd: 4.72
TIAM2, Q8IVF5; [1]
  pKd: below the threshold
DFNB31_2, Q9P202; [1]
  pKd: below the threshold
LNX2_3, Q8N448; [1]
  pKd: below the threshold
LRRC7, Q96NW7; [1]
  pKd: below the threshold
RHPN1, Q8TCX5; [1]
  pKd: below the threshold
MPP2, Q14168; [1]
  pKd: below the threshold
SCRIB_1, Q14160; [1]
  pKd: 4.11
SCRIB_2, Q14160; [1]
  pKd: 4.58
GRIP1_3, Q9Y3R0; [1]
  pKd: below the threshold
Inadl_4, Q8NI35; [1]
  pKd: below the threshold
MAGI2_3, Q86UL8; [1]
  pKd: 3.49
GOPC, Q9HD26; [1]
  pKd: below the threshold
Inadl_10, Q8NI35; [1]
  pKd: below the threshold
LNX1_1, Q8TBB1; [1]
  pKd: below the threshold
RAPGEF6, Q8TEU7; [1]
  pKd: below the threshold
GRID2IP_1, A4D2P6; [1]
  pKd: below the threshold

## YNSFLSVTTV [PDZRN3, Q9UPQ7]
Inadl_2, Q8NI35; [2]
  pKd: below the threshold
AHNAK1, Q09666; [2]
  pKd: 3.53
CASK, O14936; [2]
  pKd: below the threshold
NHERF3_3, Q5T2W1; [2]
  pKd: below the threshold
DLG3_2, Q92796; [2]
  pKd: 4.27
PICK1, Q9NRD5; [2]
  pKd: below the threshold
DLG1_3, Q12959; [2]
  pKd: 3.83
PDZRN4_1, Q6ZMN7; [2]
  pKd: below the threshold
DLG3_3, Q92796; [2]
  pKd: 3.67
LDB3, O75112; [2]
  pKd: below the threshold
DLG1_1, Q12959; [2]
  pKd: 3.81
TIAM2, Q8IVF5; [2]
  pKd: below the threshold
DFNB31_2, Q9P202; [2]
  pKd: below the threshold
LNX2_3, Q8N448; [2]
  pKd: below the threshold
LRRC7, Q96NW7; [2]
  pKd: below the threshold
RHPN1, Q8TCX5; [2]
  pKd: 4.4
MPP2, Q14168; [2]
  pKd: below the threshold
SCRIB_1, Q14160; [2]
  pKd: 3.62
SCRIB_2, Q14160; [2]
  pKd: 3.69
GRIP1_3, Q9Y3R0; [2]
  pKd: below the threshold
Inadl_4, Q8NI35; [2]
  pKd: below the threshold
MAGI2_3, Q86UL8; [2]
  pKd: 3.56
GOPC, Q9HD26; [2]
  pKd: 4.1
Inadl_10, Q8NI35; [2]
  pKd: 3.7
LNX1_1, Q8TBB1; [2]
  pKd: 3.8
RAPGEF6, Q8TEU7; [2]
  pKd: below the threshold
GRID2IP_1, A4D2P6; [2]
  pKd: below the threshold

## PKMKLNETSF [SHKBP1, Q8TBC3]
Inadl_2, Q8NI35; [2]
  pKd: below the threshold
AHNAK1, Q09666; [2]
  pKd: below the threshold
CASK, O14936; [2]
  pKd: below the threshold
NHERF3_3, Q5T2W1; [2]
  pKd: below the threshold
DLG3_2, Q92796; [2]
  pKd: below the threshold
PICK1, Q9NRD5; [2]
  pKd: below the threshold
DLG1_3, Q12959; [2]
  pKd: below the threshold
PDZRN4_1, Q6ZMN7; [2]
  pKd: below the threshold
DLG3_3, Q92796; [2]
  pKd: below the threshold
LDB3, O75112; [2]
  pKd: below the threshold
DLG1_1, Q12959; [2]
  pKd: below the threshold
TIAM2, Q8IVF5; [2]
  pKd: below the threshold
DFNB31_2, Q9P202; [2]
  pKd: below the threshold
LNX2_3, Q8N448; [2]
  pKd: below the threshold
LRRC7, Q96NW7; [2]
  pKd: below the threshold
RHPN1, Q8TCX5; [2]
  pKd: 3.72
MPP2, Q14168; [2]
  pKd: below the threshold
SCRIB_1, Q14160; [2]
  pKd: 4.31
SCRIB_2, Q14160; [2]
  pKd: below the threshold
GRIP1_3, Q9Y3R0; [2]
  pKd: below the threshold
Inadl_4, Q8NI35; [2]
  pKd: below the threshold
MAGI2_3, Q86UL8; [2]
  pKd: below the threshold
GOPC, Q9HD26; [2]
  pKd: below the threshold
Inadl_10, Q8NI35; [2]
  pKd: below the threshold
LNX1_1, Q8TBB1; [2]
  pKd: below the threshold
RAPGEF6, Q8TEU7; [2]
  pKd: below the threshold
GRID2IP_1, A4D2P6; [2]
  pKd: below the threshold

From paper PMC9482650, “Quantitative fragmentomics allow affinity mapping of interactomes” (Nature Communications, 2022)
